Measurements from paper doi:10.1101/787937.

Experiments:
YTHDC1 YTH domain [1] = molecular target: T1, YTHDC1 YTH domain (human, UniProt Q96MU7 345-509); assay: X-ray crystallography
YTHDC1 YTH domain [2] = molecular target: T1, YTHDC1 YTH domain; assay: ITC

Binder: GAC (ssRNA, m6A at position 2) [G(m6A)C]
- binding result (YTHDC1 YTH domain [1]): binds

Binder: ACU (ssRNA, m6A at position 1) [(m6A)CU]
- binding result (YTHDC1 YTH domain [1]): binds

Binder: GGAC (ssRNA, m6A at position 3) [GG(m6A)C]
- binding result (YTHDC1 YTH domain [1]): binds

Binder: GACU (ssRNA, m6A at position 2) [G(m6A)CU]
- binding result (YTHDC1 YTH domain [1]): binds

Binder: GGACU (ssRNA, m6A at position 3) [GG(m6A)CU]
- Kd (YTHDC1 YTH domain [2]): 0.5 µM
